Measurements published in the supplement of paper PMC10567573.

B1: DLC1 (parent)
chain: AEVVKIRDSFSNQNTETKDTKSR
B2: ANKRD17 (parent)
chain: EMVRFLLEAGADQEHKTDEMHTAL

Variants of: B1
Assay: protein stability index of a GFP-peptide fusion (GPS, HEK-293T) (PSI 1-6); higher = more stable
Details: c terminus: native
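Also: lentivirally expressed fusions sorted by FACS into six bins by GFP to DsRed ratio, PSI derived from sequencing read proportions per bin multiplied by bin number.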

Protein stability index of substitutions, site by site:
D8: C 1.46 | Y 3.5 | G 2.23 | N 2.07 | Q 1.26 | M 1.65
E2: L 1.03 | F 2.11 | G 1.95 | H 2.02 | N 2.04 | V 1.7 | T 3.03 | M 1.63
Q13: K 1.77 | N 2.56 | D 2.37 | S 1.87 | W 2.36 | Y 2.92
I6: D 2.79 | G 2.38 | M 2.64 | Q 2.67 | R 3.18 | K 3.3
A1: R 2.73 | S 1.75 | I 2.06 | G 2.9 | P 1.72 | C 2.19 | Q 3.03 | N 3.03
R23: W 3.23 | G 4.84 | Q 5.65 | F 4.83 | L 5.49 | I 4.91 | V 5.51 | D 5.6
V4: E 2.59 | N 2.48 | W 2.05 | R 2.3 | Y 2.76 | A 1.73
E16: F 3.13 | D 3.35
K21: H 2.96 | F 4.8 | V 4.89
S11: G 2.36 | Y 2.65 | P 2.54 | Q 2.62 | M 1.46 | W 1.88 | I 1.9 | C 2.58
S22: E 3.8 | I 3.14 | T 3.04 | V 2.98 | Y 3.36 | W 3.96 | H 3.48
S9: Y 1.67 | D 2.27 | F 1.48 | Q 1.87 | M 2.92 | V 2.25
N14: P 3.12 | I 2.08 | T 2.55 | D 2.33 | E 2.24 | G 2.08 | F 1.93 | S 1.96
K18: M 1.91 | L 3.07 | C 2.84 | E 1.7 | V 2.32 | I 2.26 | H 2.98 | N 1.98
T17: L 2.34 | K 2.17 | C 2.11 | A 2.22 | F 2.54 | D 1.83 | R 1.84 | I 2.41 | G 4.08 | H 1.73
F10: H 3.71 | G 4.24 | E 3.46 | M 2.93 | S 4
T15: R 1.67 | H 1.77 | I 1.62 | C 2.08 | G 4.39 | Q 2.98 | A 2.14
D19: K 1.85 | Q 1.99 | F 1.92 | H 2.07 | Y 2.69 | W 1.45
N12: H 2.44 | M 2.5 | E 2.71 | G 2.51 | R 1.7 | C 1.63
R7: W 1.69 | L 3.01 | N 3.31 | Y 1.77 | G 2.87 | C 2.5 | F 3.38
T20: R 4.41 | S 1.79 | L 2.71 | P 2.88 | E 1.64 | Q 2.42 | V 2.61 | A 1.79 | Y 2.1
K5: T 2.88 | L 2.4 | R 2.33 | A 2 | D 3.23 | M 2.09
V3: T 2.19 | K 4.55 | R 1.89 | I 1.63 | E 2.12 | G 2.12 | S 1.95 | L 2.29 | M 2.87

Variants of: B2
Assay: as above
Details: c terminus: a fixed tail appended

Protein stability index of substitutions, site by site:
L6: Y 3.81 | A 4.45 | I 2.63 | K 4.7 | G 4.95 | F 3.08 | D 5.47 | S 4.69 | R 4.55 | E 5.28 | W 3.25 | C 4.22 | T 4.62 | M 3.75 | V 3.51 | P 5.04 | Q 4.75 | H 4.42 | N 4.55
A9: P 3.08 | R 2.03 | F 2.32 | W 1.89 | E 3.44 | I 1.98 | S 2.96 | T 3.04 | M 2.22 | V 2.29 | L 2.59 | Q 2.78 | H 2.58 | D 3.09 | G 2.8 | C 2.62 | N 2.92 | K 3.05 | Y 2.54
E1: C 2.48 | A 2.3 | I 1.74 | T 2.73 | S 3.41 | H 2.75 | Q 2.9 | N 3.37 | W 2.05 | P 4.17 | L 2.16 | F 2.56 | G 3.41 | R 2.81 | K 2.48 | D 2.82 | M 1.97 | Y 2.54 | V 2.12
E8: L 2.52 | N 2.48 | C 2.14 | P 3.11 | A 2.15 | H 2.43 | R 2.03 | D 2.72 | F 1.94 | Q 2.67 | G 2.08 | M 2.62 | I 2.07 | V 1.89 | S 2.62 | W 1.19 | Y 1.78 | T 2.63 | K 2.71
L7: I 3.31 | H 4.27 | C 3.56 | D 5.07 | K 3.7 | N 3.72 | F 3.31 | R 4.13 | T 3.99 | E 4.79 | P 4.99 | W 3.26 | V 3.64 | Q 4.04 | S 3.95 | A 4.08 | M 3.4 | Y 3.17 | G 4.76
M2: P 4.75 | R 4.21 | T 4.4 | H 4.21 | V 2.73 | G 4.74 | I 1.93 | F 1.97 | Q 4.64 | E 4.73 | N 5.32 | D 5.29 | K 4.64 | Y 2.81 | W 2.5 | S 4.63 | L 1.95 | C 3.4 | A 3.71
R4: S 3.64 | T 3.22 | Y 2.35 | A 2.99 | Q 3.61 | H 3.2 | M 2.46 | C 3.14 | E 3.47 | V 2.65 | D 4.17 | W 2.08 | P 4.8 | I 2.19 | L 2.35 | F 2.77 | N 3.22 | G 3.86 | K 3.22
G10: C 2.13 | A 2.76 | I 1.98 | H 2.57 | F 2.18 | E 3.32 | D 3.13 | K 2.57
V3: W 2.65 | G 4.81 | Y 3.02 | K 4.2 | P 4.83 | A 4.03 | E 5.24 | M 2.87 | H 4.55 | F 2.97 | I 3.11 | D 5.21 | L 2.62 | R 4.56 | Q 4.44 | C 3.84 | N 4.47 | T 4.51 | S 4.82
F5: D 4.92 | H 3.48 | K 4.33 | M 2.87 | S 4.56 | N 4.29 | Y 2.25 | E 4.71 | V 3.7 | W 2.26 | A 3.9 | G 4.11 | L 2.56 | C 3.77 | T 4.38 | Q 4.22 | R 3.77 | P 4.91 | I 2.88
